Reference: paper PMC11641776, “Biophysical Characterization of a Novel Phosphopentomutase from the Hyperthermophilic Archaeon Thermococcus kodakarensis” (International Journal of Molecular Sciences, 2024)

Target: the molecule itself
Test: SEC; HiLoad 16/60 Superdex 200 Prep Grade column, 50 mM HEPES pH 7.0, 200 mM NaCl; elution at 61 mL, compared with standards

B1: Phosphopentomutase from Thermococcus kodakarensis (PPMTk) (enzyme)
chain: RLFGTAGIRGTLWEKVTPELAMKVGMAVGTYKSGKALVGRDGRTSSVMLKNAMISGLLSTGMEVLDADLIPTPALAWGTRKLADAGVMITASHNPPTDNGVKVFNGDGTEFYVEQERGLEEIIFSGNFRKARWDEIKPVRNVEVIPDYINAVLDFVGHETNLKVLYDGANGAGSLVAPYLLREMGAKVLSVNAHVDGHFPGRKPEPRYENIAYLGKLVRELGVDLAIAQDGDADRIAVFDEKGNYVDEDTVIALFAKLYVEEHGGGTVVVSIDTGSRIDAVVERAGGRVVRIPLGQPHDGIKRYKAIFAAEPWKLVHPKFGPWIDPFVTMGLLIKLIDENGPLSELVKEIPTYYLKKANVLCPDEYKAEVVRRAAEEVERKLSSEIKEVLTISGFRIALNDGSWILIRPSGTEPKIRVVAEAPTEKRRDELFEMAYSTVSRIVKEAEKK
notes: Phosphopentomutase PPMTk of Thermococcus kodakarensis, encoded by open reading frame TK1777; UniProt entry Q6I7B6; residues 3-447 are modelled in each of the four protomers of the crystal structure; the tag was cut off with TEV protease before SEC and the later analyses; also called TK1777; Tk1777; not shown: His6, N-terminal, cleaved
stoichiometry N: 4
